Reference: patent US20200317768A1 (published 2020)
Positions count from the first letter of the chain named. Names and notes keep the numbering of the source.

B1: M103205H795-P1549m/M103202L889-SK1 (antibody, human IgG1, kappa)
heavy: QVTLKESGPVLVKPTETLTLTCTVSGIDLSHDDISWVRQAPGKGLEWVGIISYAGSTYYASWAKGRLTISKDTSKNQVVLTMTNMDPVDTATYYCARGVPAYSHGGDLWGQGTLVTVSSASTKGPSVFPLAPSSKSTSGGTAALGCLVKDYFPEPVTVSWNSGALTSGVHTFPAVLQSSGLYSLSSVVTVPSSSLGTQTYICNVNHKPSNTKVDKKVEPKSCDKTHTCPPCPAPELLGGPSVFLFPPKPKDTLMISRTPEVTCVVVDVSHEDPEVKFNWYVDGVEVHNAKTKPREEQYNSTYRVVSVLTVLHRDWLNGKEYKCKVSNKALPAPIEKTISKAKGQPREPQVYTLPPSREEMTKNQVSLTCLVKGFYPSDIAVEWESNRQPENNYKTTPPVLDSDRSFFLYSKLTVDKSRWQQGNVFSCSVMHEALHNHYTQKSLSLSP
light: DIVMTQSPATLSLSPGERATLSCTSSQSVYHANWLSWFQQKPGQPPKLLIYWASTLAYGVPSRFSGSGSGTDFTLTISSLQPEDAATYYCAGGYGGGRYAFGQGTKVEIKRTVAAPSVFIFPPSDEQLKSGTASVVCLLNNFYPREAKVQWKVDNALQSGNSQESVTEQDSKDSTYSLSSTLTLSKADYEKHKVYACEVTHQGLSSPVTKSFNRGEC
B2: M103205H795-P1552m/M103202L889-SK1 (antibody, human IgG1, kappa)
heavy: B1 heavy with R313Q, D403R, R404G, D415K
light: B1 light
B3: M103205H795-P1555m/M103202L889-SK1 (antibody, human IgG1, kappa)
heavy: B1 heavy with R313Q, R387G, E390R, D415K
light: B1 light
B4: M103205H795-P1550m/M103202L889-SK1 (antibody, human IgG1, kappa)
heavy: B1 heavy with R387G, E390R, D403R, R404G
light: B1 light
B5: M103205H795-SG141/M103202L889-SK1 (antibody, human IgG1, kappa)
heavy: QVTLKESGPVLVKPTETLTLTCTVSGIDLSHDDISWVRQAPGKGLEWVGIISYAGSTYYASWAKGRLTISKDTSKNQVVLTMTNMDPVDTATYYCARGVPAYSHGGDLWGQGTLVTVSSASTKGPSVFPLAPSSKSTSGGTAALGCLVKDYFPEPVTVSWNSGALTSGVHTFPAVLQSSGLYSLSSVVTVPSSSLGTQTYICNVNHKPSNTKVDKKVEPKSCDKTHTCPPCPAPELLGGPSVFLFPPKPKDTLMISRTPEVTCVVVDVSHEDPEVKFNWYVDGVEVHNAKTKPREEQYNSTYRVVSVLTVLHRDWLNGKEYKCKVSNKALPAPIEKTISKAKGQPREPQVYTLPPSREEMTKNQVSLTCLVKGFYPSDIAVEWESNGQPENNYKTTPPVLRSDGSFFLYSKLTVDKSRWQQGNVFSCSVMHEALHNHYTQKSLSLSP
light: B1 light
B6: M103205H795-P1553m/M103202L889-SK1 (antibody, human IgG1, kappa)
heavy: B1 heavy with R313Q, D415K
light: B1 light
B7: M103205H795-P1551m/M103202L889-SK1 (antibody, human IgG1, kappa)
heavy: B1 heavy with R387G, E390R
light: B1 light
B8: GpH7-B3 variant A327N/GpL16-k0 (antibody, human IgG1, kappa)
heavy: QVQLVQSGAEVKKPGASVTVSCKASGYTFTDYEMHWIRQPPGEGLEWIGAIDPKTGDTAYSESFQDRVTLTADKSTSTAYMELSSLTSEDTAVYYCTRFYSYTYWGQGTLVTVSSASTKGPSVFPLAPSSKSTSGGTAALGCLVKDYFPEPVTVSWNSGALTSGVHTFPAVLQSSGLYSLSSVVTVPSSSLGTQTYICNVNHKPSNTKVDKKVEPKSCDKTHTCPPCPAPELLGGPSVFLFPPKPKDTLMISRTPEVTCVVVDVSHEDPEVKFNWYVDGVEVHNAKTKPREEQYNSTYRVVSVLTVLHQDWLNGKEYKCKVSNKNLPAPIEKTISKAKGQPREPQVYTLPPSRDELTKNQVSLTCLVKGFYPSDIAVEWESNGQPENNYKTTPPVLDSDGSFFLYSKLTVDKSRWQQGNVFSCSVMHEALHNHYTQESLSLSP
light: DIVMTQSPLSLPVTPGEPASISCQASESLVHSNRNTYLHWYLQKPGQSPQLLIYKVSNRFSGVPDRFSGSGSGTDFTLKISRVEAEDVGVYYCSQNTHVPPTFGQGTKVEIERTVAAPSVFIFPPSDEQLKSGTASVVCLLNNFYPREAKVQWKVDNALQSGNSQESVTEQDSKDSTYSLSSTLTLSKADYEKHKVYACEVTHQGLSSPVTKSFNRGEC
B9: GpH7-B3 variant A330R/GpL16-k0 (antibody, human IgG1, kappa)
heavy: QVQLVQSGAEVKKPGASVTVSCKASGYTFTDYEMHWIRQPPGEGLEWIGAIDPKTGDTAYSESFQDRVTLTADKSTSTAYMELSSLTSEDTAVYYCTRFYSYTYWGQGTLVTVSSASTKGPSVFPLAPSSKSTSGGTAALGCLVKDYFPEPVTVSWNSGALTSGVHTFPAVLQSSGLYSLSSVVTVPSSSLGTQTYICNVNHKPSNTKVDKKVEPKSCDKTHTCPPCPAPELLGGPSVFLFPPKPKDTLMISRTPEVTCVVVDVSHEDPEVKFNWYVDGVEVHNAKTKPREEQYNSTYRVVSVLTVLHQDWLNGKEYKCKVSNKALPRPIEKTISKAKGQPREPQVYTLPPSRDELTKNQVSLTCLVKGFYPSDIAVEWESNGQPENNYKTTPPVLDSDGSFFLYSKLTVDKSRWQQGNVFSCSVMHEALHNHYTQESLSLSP
light: B8 light
B10: GpH7-B3 variant N325L/GpL16-k0 (antibody, human IgG1, kappa)
heavy: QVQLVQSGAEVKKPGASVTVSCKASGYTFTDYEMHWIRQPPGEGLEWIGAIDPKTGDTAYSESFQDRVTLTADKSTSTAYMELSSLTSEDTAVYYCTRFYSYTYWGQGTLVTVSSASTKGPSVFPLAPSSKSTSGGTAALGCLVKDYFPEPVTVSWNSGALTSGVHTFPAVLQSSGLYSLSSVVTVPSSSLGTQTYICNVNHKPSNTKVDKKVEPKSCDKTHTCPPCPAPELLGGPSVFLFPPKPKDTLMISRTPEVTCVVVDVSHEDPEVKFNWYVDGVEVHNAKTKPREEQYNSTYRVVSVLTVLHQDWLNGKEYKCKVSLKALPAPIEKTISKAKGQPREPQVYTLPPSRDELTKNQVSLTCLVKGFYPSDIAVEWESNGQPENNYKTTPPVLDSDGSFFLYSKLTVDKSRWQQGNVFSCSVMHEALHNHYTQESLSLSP
light: B8 light
B11: GpH7-B3 variant G237Y/GpL16-k0 (antibody, human IgG1, kappa)
heavy: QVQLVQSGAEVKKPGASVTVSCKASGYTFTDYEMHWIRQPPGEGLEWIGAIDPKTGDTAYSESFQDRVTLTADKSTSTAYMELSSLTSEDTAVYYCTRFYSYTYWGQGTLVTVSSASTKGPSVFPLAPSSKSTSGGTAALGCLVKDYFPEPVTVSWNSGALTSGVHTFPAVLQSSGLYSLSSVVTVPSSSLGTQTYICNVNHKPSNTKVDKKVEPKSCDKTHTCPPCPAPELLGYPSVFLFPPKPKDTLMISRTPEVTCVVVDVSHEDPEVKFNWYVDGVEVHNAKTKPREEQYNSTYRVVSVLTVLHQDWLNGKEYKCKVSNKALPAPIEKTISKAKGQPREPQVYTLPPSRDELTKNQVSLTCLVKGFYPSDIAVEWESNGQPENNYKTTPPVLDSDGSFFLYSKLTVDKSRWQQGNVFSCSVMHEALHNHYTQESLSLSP
light: B8 light
B12: GpH7-B3 variant P238M/GpL16-k0 (antibody, human IgG1, kappa)
heavy: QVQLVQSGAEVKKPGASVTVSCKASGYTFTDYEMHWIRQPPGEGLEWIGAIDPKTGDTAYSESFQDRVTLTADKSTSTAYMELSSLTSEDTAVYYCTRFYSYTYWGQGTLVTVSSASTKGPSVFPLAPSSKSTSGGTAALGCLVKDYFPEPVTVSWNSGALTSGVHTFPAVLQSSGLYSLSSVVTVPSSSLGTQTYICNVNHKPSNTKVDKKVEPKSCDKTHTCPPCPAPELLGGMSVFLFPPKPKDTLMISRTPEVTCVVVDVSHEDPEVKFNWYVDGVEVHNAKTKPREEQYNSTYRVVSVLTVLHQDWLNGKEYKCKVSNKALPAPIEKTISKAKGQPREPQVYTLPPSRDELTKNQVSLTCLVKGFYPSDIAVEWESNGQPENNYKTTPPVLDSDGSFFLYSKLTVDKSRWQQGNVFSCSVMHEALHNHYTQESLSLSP
light: B8 light
B13: GpH7-B3 variant A330K/GpL16-k0 (antibody, human IgG1, kappa)
heavy: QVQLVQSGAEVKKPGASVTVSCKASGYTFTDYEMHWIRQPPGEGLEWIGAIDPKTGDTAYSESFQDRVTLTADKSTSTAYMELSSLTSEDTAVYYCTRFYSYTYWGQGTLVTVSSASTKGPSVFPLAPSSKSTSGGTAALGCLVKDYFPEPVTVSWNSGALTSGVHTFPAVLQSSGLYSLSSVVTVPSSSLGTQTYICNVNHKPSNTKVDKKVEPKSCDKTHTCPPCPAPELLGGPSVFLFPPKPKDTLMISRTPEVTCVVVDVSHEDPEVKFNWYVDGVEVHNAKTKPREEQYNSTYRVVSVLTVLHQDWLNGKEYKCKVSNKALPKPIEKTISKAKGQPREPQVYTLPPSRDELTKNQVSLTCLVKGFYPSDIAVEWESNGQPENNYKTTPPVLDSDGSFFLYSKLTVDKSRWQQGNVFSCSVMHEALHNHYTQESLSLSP
light: B8 light
B14: GpH7-B3 variant P238E/GpL16-k0 (antibody, human IgG1, kappa)
heavy: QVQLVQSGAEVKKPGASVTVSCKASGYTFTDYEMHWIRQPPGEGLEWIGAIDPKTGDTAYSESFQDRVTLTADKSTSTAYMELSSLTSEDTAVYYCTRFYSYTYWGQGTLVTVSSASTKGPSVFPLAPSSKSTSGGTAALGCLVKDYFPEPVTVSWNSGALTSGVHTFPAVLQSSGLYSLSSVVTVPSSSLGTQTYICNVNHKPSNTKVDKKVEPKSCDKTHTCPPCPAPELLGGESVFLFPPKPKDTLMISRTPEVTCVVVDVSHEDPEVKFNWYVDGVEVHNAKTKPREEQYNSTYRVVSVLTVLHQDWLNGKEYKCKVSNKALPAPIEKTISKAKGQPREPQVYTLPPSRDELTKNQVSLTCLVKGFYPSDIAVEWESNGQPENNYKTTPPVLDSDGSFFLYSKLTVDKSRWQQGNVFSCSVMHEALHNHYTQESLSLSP
light: B8 light
B15: GpH7-B3 variant P271E/GpL16-k0 (antibody, human IgG1, kappa)
heavy: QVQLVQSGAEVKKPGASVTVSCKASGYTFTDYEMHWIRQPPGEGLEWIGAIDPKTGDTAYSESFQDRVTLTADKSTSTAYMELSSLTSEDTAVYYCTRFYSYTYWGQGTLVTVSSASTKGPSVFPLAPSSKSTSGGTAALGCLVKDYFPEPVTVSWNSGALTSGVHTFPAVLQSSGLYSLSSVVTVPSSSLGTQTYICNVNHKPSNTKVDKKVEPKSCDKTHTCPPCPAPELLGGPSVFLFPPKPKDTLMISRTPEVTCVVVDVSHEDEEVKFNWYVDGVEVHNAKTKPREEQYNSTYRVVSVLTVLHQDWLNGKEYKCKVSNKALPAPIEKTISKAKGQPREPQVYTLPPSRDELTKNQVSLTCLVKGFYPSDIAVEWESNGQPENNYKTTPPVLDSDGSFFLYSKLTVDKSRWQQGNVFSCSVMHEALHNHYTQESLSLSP
light: B8 light
B16: GpH7-B3 variant N325I/GpL16-k0 (antibody, human IgG1, kappa)
heavy: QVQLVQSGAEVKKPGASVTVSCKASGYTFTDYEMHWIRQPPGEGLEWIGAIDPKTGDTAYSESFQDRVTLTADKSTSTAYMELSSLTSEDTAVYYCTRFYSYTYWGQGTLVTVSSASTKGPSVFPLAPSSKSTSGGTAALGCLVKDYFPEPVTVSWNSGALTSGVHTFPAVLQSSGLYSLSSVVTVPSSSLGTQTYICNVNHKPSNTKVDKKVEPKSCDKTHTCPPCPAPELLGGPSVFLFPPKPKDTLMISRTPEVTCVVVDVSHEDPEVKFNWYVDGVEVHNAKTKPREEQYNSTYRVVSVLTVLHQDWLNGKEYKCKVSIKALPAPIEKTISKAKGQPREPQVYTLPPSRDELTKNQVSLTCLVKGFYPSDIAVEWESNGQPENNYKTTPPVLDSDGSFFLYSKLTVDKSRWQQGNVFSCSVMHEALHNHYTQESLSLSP
light: B8 light

Legend:
[1] = target: T1, human FcγRIIb constitutively expressed on MDCK cells (human, UniProt P31994 43-310); test: cell-based or functional assay
T1 sequence (looked up): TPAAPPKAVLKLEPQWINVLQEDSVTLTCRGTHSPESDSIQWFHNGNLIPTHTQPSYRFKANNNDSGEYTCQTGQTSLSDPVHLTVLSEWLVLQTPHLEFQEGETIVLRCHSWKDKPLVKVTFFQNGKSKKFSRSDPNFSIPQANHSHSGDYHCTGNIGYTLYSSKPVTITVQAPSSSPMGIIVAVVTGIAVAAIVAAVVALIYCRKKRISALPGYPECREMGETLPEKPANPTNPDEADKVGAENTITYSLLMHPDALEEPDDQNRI

[2] = target: T2, soluble mouse FcγRII, His-tagged (mouse, UniProt P08101 30-210, limits assumed); test: SPR, mouse FcgRII-His captured, antigen-antibody complex injected, pH7.4, 25C
T2 construct: Captured on the chip by an anti-His antibody
T2 sequence (looked up): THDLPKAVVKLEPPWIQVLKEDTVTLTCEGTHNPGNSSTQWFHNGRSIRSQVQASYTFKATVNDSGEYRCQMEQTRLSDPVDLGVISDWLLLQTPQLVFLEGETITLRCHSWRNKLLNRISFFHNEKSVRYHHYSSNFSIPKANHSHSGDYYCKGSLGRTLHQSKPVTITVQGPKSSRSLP
Procedure: Regarding the produced Fc region variant-containing antibodies, binding assays between soluble mouse FcγRII and antigen-antibody complexes were performed using BIACORE® T200 (GE Healthcare). Soluble mouse FcγRII was produced in the form of a His-tagged molecule by a method known to those skilled in the art. An appropriate amount of an anti-His antibody was fixed onto Sensor chip CM5 (GE Healthcare) by the amine coupling method using a His capture kit (GE Healthcare) to capture mouse FcγRII. Next, an antibody-antigen complex and a running buffer (as a reference solution) were injected, and interaction was allowed to take place with the mouse FcγRII captured onto the sensor chip. 20 mM N-(2-Acetamido)-2-aminoethanesulfonic acid, 150 mM NaCl, 1.2 mM CaCl₂, and 0.05% (w/v) TWEEN, 20 at pH7.4 was used as the running buffer, and the respective buffer was also used to dilute the soluble mouse FcγRII. To regenerate the sensor chip, 10 mM glycine-HCl at pH1.5 was used. All measurements were carried out at 25° C. […] To calculate the parameters, the BIACORE® T100 Evaluation Software (GE Healthcare) was used.

[3] = target: T3, human FcγRIIaR extracellular domain, C-terminal His-tag (human, UniProt P12318 34-217); test: SPR 25C; FcgR bound per captured antibody, relative to parent B3
T3 construct: also called human FcγRIIa (type R); FcgRIIaR
T3 chain: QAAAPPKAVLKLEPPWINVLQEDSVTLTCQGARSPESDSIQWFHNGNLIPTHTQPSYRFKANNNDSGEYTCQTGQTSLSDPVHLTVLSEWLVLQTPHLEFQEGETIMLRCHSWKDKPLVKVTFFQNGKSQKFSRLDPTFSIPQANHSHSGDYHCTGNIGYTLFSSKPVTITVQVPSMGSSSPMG
Procedure: (§1) These Fc variants are referred to as B3 variants. B3 variants were expressed and the binding of protein-A purified antibodies to each FcγR (FcγRIIa type H. FcγRIIa type R, FcγRIIb, and FcγRIIIaF) was comprehensively evaluated as follows. Analysis of interaction between each altered antibody and the Fcγ receptor prepared as mentioned above was carried out using BIACORE® T100 (GE Healthcare), BIACORE® T200 (GE Healthcare), BIACORE® A100, or BIACORE® 4000. HBS-EP+(GE Healthcare) was used as the running buffer, and the measurement temperature was set to 25° C. Chips produced by immobilizing Protein A (Thermo Scientific), Protein A/G (Thermo Scientific), or Protein L (ACTIGEN or BioVision) by the amine coupling method to a Series S sensor Chip CM5 or CM4 (GE Healthcare) were used. After capturing of antibodies of interest onto these sensor chips, an Fcγ receptor diluted with the running buffer was allowed to interact, the amount bound to an antibody was measured. However, since the amount of Fcγ receptor bound depends on the amount of the captured antibodies, the amount of Fcγ receptor bound was divided by the amount of each antibody captured to obtain corrected values, and these values were compared. Furthermore, antibodies captured onto the chips were washed by 10 mM glycine-HCl pH1.5, and the chips were regenerated and used repeatedly. […] The value obtained by multiplying this value by 100 was used as an indicator of the relative FcγR-binding activity of each variant.

[4] = target: T4, human FcγRIIaH extracellular domain, C-terminal His-tag (human, UniProt P12318 34-217); test: as above
T4 construct: also called human FcγRIIa (type H); FcgRIIaH
T4 sequence: T3 chain with R134H
Procedure: as §1

Binder | celluar uptake [1] | biacore IC binding [2] | Binding to human FcgRs (parent B3 = 100) [3] | Binding to human FcgRs (parent B3 = 100) [4]
B1 | 2.03 relative to SG1 (=1.00) | 1.22 relative to SG1 (=1.00) | – | –
B2 | 4.44 relative to SG1 (=1.00) | 2.19 relative to SG1 (=1.00) | – | –
B3 | 3.71 relative to SG1 (=1.00) | 2.01 relative to SG1 (=1.00) | – | –
B4 | 6.43 relative to SG1 (=1.00) | 1.63 relative to SG1 (=1.00) | – | –
B5 | 4.42 relative to SG1 (=1.00) | 1.64 relative to SG1 (=1.00) | – | –
B6 | 2.86 relative to SG1 (=1.00) | 1.47 relative to SG1 (=1.00) | – | –
B7 | 2.91 relative to SG1 (=1.00) | 1.33 relative to SG1 (=1.00) | – | –
B8 | – | – | 48 parent B3 = 100 | 95 parent B3 = 100
B9 | – | – | 123 parent B3 = 100 | 116 parent B3 = 100
B10 | – | – | 13 parent B3 = 100 | 93 parent B3 = 100
B11 | – | – | – | 77 parent B3 = 100
B12 | – | – | – | 86 parent B3 = 100
B13 | – | – | 127 parent B3 = 100 | 121 parent B3 = 100
B14 | – | – | 2 parent B3 = 100 | 21 parent B3 = 100
B15 | – | – | 51 parent B3 = 100 | 90 parent B3 = 100
B16 | – | – | – | 76 parent B3 = 100
